2 molecules from article PMC8092299, “Bifunctional Malic/Malolactic Enzyme Provides a Novel Mechanism for NADPH-Balancing in Bacillus subtilis” (mBio, 2021) can be followed below.

Series [1] deals with T1, MaeB (Escherichia coli, UniProt P76558).
T1 construct: His-tagged from ASKA His tag collection library, overexpressed in E. coli, Ni-NTA purified, tag kept
T1 sequence (P76558 1-759): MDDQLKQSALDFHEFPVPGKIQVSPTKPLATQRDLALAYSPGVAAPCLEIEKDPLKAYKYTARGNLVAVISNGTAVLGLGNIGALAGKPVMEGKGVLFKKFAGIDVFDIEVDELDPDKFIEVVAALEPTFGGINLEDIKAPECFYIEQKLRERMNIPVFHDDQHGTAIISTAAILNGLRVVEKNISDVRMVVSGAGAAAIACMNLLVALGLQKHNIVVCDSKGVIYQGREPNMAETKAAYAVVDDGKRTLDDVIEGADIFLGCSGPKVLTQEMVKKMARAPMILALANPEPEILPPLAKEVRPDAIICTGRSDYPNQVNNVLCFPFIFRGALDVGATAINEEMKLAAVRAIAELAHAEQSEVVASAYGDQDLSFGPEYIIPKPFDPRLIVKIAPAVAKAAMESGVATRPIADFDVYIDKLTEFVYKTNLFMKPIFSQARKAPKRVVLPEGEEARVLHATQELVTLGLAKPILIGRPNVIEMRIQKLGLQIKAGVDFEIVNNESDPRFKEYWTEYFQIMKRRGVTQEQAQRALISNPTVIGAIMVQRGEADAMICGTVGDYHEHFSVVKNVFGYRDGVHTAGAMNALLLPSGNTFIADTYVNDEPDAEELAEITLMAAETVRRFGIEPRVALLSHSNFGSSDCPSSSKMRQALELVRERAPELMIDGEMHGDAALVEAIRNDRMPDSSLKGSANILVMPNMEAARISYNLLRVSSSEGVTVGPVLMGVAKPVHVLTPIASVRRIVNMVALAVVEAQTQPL
The series is described as follows: flow-injection TOF MS, lactate formation (malolactic activity). To be noted: NAD+, malate, pyruvate and 1 mM NADPH; 10 mM potassium phosphate pH 7.4, 2.5 mM MgCl2, 50 mM KCl, 1 mM NaHCO3, room temperature. It counts as biochemical.

Substrate in series [2]: CC(=O)C(=O)O
The series is described as follows: purified protein. It counts as biochemical, Bacillus subtilis. The settings on record: reductive carboxylation, NADH and NADPH both added at 0.2 mM, 50 mM NaHCO3, 5 mM MgCl2, 50 mM KCl, 100 mM Tris-HCl pH 7.8, 37°C.

Substrate in series [3]: NC(=O)C1=CN([C@@H]2O[C@H](COP(=O)(O)OP(=O)(O)OC[C@H]3O[C@@H](n4cnc5c(N)ncnc54)[C@H](OP(=O)(O)O)[C@@H]3O)[C@@H](O)[C@H]2O)C=CC1
The series is described as follows: purified protein. It counts as biochemical, Bacillus subtilis. To be noted: reductive carboxylation, 20 mM pyruvate, 50 mM NaHCO3, 5 mM MgCl2, 50 mM KCl, 100 mM Tris-HCl pH 7.8, 37°C, varied: cofactor.

On to `O=C(O)C[C@H](O)C(=O)O` [malate], for which the “flow-injection TOF MS, lactate formation (malolactic activity)” value in series [1] is on record as “we observed lactate production and, thus, malolactic activity by MaeB”.

B1: YtsJ (Bacillus subtilis subsp. subtilis str. 168) (protein)
chain: MSLREEALHLHKVNQGKLESKSKVEVRNAKDLSLAYSPGVAEPCKDIHEDINKVYDYTMKGNMVAVVTDGTAVLGLGNIGPEAALPVMEGKAVLFKSFAGVDAFPIALNTNDVDKIVETVKLLEPTFGGVNLEDIAAPNCFIIEERLKKETNIPVFHDDQHGTAIVTVAGLVNALKLSGKSMSSIKVVANGAGAAGIAIIKLLHHYGVRDIVMCDSKGAIYEGRPNGMNDVKNEVAKFTNQDRKDGSLKDVIVDADVFIGVSVAGALTKEMVQSMAKDPIIFAMANPNPEIMPEDAREAGASVVGTGRSDFPNQVNNVLAFPGIFRGALDVRATHINEEMKIAAVEAIASLVSEDELSADYVIPAPFDKRVAPAVAKAVAKAAMETGVARITVDPEEVAEKTRKLTIIGE
notes: His6-tagged, overexpressed in E. coli (QIAexpress), Ni-NTA purified, tag kept
In general, Km refers to the concentration of substrate that gives half-maximal velocity. With B1, the Km in series [2] is recorded as 5.3 ± 1.3 mM; in series [3], 0.8 ± 0.5 mM.
